Numbering of substitutions follows the chain as printed. Numbers in names are those of the source.
B1: CH3-BGA-4712-M3 (other)
chain: GQPREPQVYTLPPSREEMTKNQVSLTCLVKGFYPSDIAVEWESNGQPENNYKTTPPVLDSDGSFFLYSKLTVDKSRWQQGNVFSCSVMHEALHNHYTQKSLSLSPGKGGGGSEVQLLESGGGLVQPGGSLRLSCAASGFTLSAEDVGWVRQAPGKGLEWVSAILDFGGSTYYAESVKGRFTISRDNAKNTLYLQMSSLRAEDTAVYYCARVVYHAGGGVTFDYWGQGTLVTVSS
notes: Tested as bacterial supernatant; expressed as a dimer of CH3 fusion proteins from the phagemid; also called CH3 fusion of anti-huCD137 VH domain antibody
B2: CH3-BGA-4712-M3 with W47Y mutation in VH region (other)
chain: B1 chain with W159Y
B3: CH3-BGA-4712-M3 with W47G mutation in VH region (other)
chain: B1 chain with W159G
notes: built from pieces so that position 47 counts on the VH
B4: CH3-BGA-4712-M3 with W47F mutation in VH region (other)
chain: B1 chain with W159F
B5: A-CD137×CEA-M1 (bispecific antibody, human IgG1, kappa)
heavy: QVQLVQSGAEVKKPGASVKVSCKASGYIFTSYYLHWVRQAPGQGLEWIGYINPQTGKTSYAQKFQGRVTMTRDTSTSTVYMELSSLRSEDTAVYYCAREYGNYNYPLDYWGQGTLVTVSSASTKGPSVFPLAPSSKSTSGGTAALGCLVKDYFPEPVTVSWNSGALTSGVHTFPAVLQSSGLYSLSSVVTVPSSSLGTQTYICNVNHKPSNTKVDKKVEPKSCDKTHTCPPCPAPPAAGPSVFLFPPKPKDTLMISRTPEVTCVVVDVSHEDPEVKFNWYVDGVEVHNAKTKPREEQYNSTYRVVSVLTVLHQDWLNGKEYKCKVSNKALAAPIEKTISKAKGQPREPQVYTLPPSREEMTKNQVSLTCLVKGFYPSDIAVEWESNGQPENNYKTTPPVLDSDGSFFLYSKLTVDKSRWQQGNVFSCSVMHEALHNHYTQKSLSLSPGKGGGGSEVQLLESGGGLVQPGGSLRLSCAASGFTLSAEDMGWVRQAPGKGLEWVSAILDFGGSTYYAESVKGRFTISRDNAKNTLYLQMSSLRAEDTAVYYCARVVYHAGGGVTFDYWGQGTLVTVSS
light: DIQMTQSPSSLSASVGDRVTITCRASENQYGYLAWYQQKPGKVPKLLIYNYKNLVEGVPSRFSGSGSGTDFTLTISSLQPEDVATYYCQHHLGTPYTFGQGTKVEIKRTVAAPSVFIFPPSDEQLKSGTASVVCLLNNFYPREAKVQWKVDNALQSGNSQESVTEQDSKDSTYSLSSTLTLSKADYEKHKVYACEVTHQGLSSPVTKSFNRGEC
B6: BE-755 (ZW1+2) (bispecific antibody, human IgG1, L234A L235A)
heavy 1: QVQLVQSGAEVKKPGASVKVSCKASGYIFTSYYLHWVRQAPGQGLEWIGYINPQTGKTSYAQKFQGRVTMTRDTSTSTVYMELSSLRSEDTAVYYCAREYGNYNYPLDYWGQGTLVTVSSASTKGPSVFPLAPSSKSTSGGTAWLGCEVTDYFPEPVTVSWNSGALTSGVHTFPAVLESSGLYSLSSVVTVPSSSLGTQTYICNVNHKPSNTKVDKKVEPKSCDKTHTCPPCPAPEAAGGPSVFLFPPKPKDTLMISRTPEVTCVVVSVSHEDPEVKFNWYVDGVEVHNAKTKPREEQYNSTYRVVSVLTVLHQDWLNGKEYKCKVSNKALPAPIEKTISKAKGQPREPQVYVLPPSRDELTKNQVSLLCLVKGFYPSDIAVEWESNGQPENNYLTWPPVLDSDGSFFLYSKLTVDKSRWQQGNVFSCSVMHEALHNHYTQKSLSLSPGK
light: B5 light with F116A, Q124R, L135V, T178R
heavy 2: not shown
B7: BE-375 (E-IgG1-BGA-5623) (bispecific antibody)
heavy: not shown
light: B5 light
B8: BE-244 (A-(G4S)3-BGA-5623) (bispecific antibody, human IgG1, kappa)
heavy: QVQLVQSGAEVKKPGASVKVSCKASGYIFTSYYLHWVRQAPGQGLEWIGYINPQTGKTSYAQKFQGRVTMTRDTSTSTVYMELSSLRSEDTAVYYCAREYGNYNYPLDYWGQGTLVTVSSASTKGPSVFPLAPSSKSTSGGTAALGCLVKDYFPEPVTVSWNSGALTSGVHTFPAVLQSSGLYSLSSVVTVPSSSLGTQTYICNVNHKPSNTKVDKKVEPKSCDKTHTCPPCPAPPAAGPSVFLFPPKPKDTLMISRTPEVTCVVVDVSHEDPEVKFNWYVDGVEVHNAKTKPREEQYNSTYRVVSVLTVLHQDWLNGKEYKCKVSNKALAAPIEKTISKAKGQPREPQVYTLPPSREEMTKNQVSLTCLVKGFYPSDIAVEWESNGQPENNYKTTPPVLDSDGSFFLYSKLTVDKSRWQQGNVFSCSVMHEALHNHYTQKSLSLSPGKGGGGSGGGGSGGGGSEVQLLESGGGLVQPGGSLRLSCAASGFTVSAEDVGWVRQAPGKGLEWVSAILDKGGSTYYAESVKGRFTISRDNAKNTLYLQMSSLRAEDTAVYYCARIVYHAGGGVTFDTRGQGTQVTVSS
light: B5 light
B9: BE-942 (ZW 1+1) (bispecific antibody, human IgG1, L234A L235A)
heavy 1: B6 heavy 1
light: B5 light with F116A, Q124R, L135V, T178R
heavy 2: not shown
B10: BE-562 (E-muFc-BGA-5623) (bispecific antibody)
heavy: EVQLLESGGGLVQPGGSLRLSCAASGFTVSAEDVGWVRQAPGKGLEWVSAILDKGGSTYYAESVKGRFTISRDNAKNTLYLQMSSLRAEDTAVYYCARIVYHAGGGVTFDTRGQGTQVTVSSEPKSSDKTHTCPPCPAPPAAGPSVFLFPPKPKDTLMISRTPEVTCVVVDVSHEDPEVKFNWYVDGVEVHNAKTKPREEQYNSTYRVVSVLTVLHQDWLNGKEYKCKVSNKALAAPIEKTISKAKGQPREPQVYTLPPSREEMTKNQVSLTCLVKGFYPSDIAVEWESNGQPENNYKTTPPVLDSDGSFFLYSKLTVDKSRWQQGNVFSCSVMHEALHNHYTQKSLSLSPGKGGGGSQVQLVQSGAEVKKPGASVKVSCKASGYIFTSYYLHWVRQAPGQGLEWIGYINPQTGKTSYAQKFQGRVTMTRDTSTSTVYMELSSLRSEDTAVYYCAREYGNYNYPLDYWGQGTLVTVSSASTKGPSVFPLAPSSKSTSGGTAALGCLVKDYFPEPVTVSWNSGALTSGVHTFPAVLQSSGLYSLSSVVTVPSSSLGTQTYICNVNHKPSNTKVDKKVEPKSCD
light: B5 light
B11: A-CD137×CEA-M6 (bispecific antibody)
heavy: B5 heavy with F481R, E516D
light: B5 light
notes: V35M as printed
B12: A-CD137×CEA-M7 (bispecific antibody, human IgG1, kappa)
heavy: B5 heavy with M488V, E516D
light: B5 light
B13: A-CD137×CEA-M5 (bispecific antibody)
heavy: B5 heavy with E516D
light: B5 light
notes: V35M as printed
B14: A-CD137×CEA-M8 (bispecific antibody, human IgG1, kappa)
heavy: B5 heavy with F481R, M488V, E516D
light: B5 light
B15: A-CD137×CEA-M2 (bispecific antibody)
heavy: B5 heavy with F481R
light: B5 light
notes: V35M as printed
B16: A-CD137×CEA-M4 (bispecific antibody, human IgG1, kappa)
heavy: B5 heavy with F481R, M488V
light: B5 light
B17: Format A-BGA-5623 (bispecific antibody, human IgG1, kappa)
heavy: B5 heavy with L483V, M488V, F508K, V553I, Y565T, W566R, L571Q
light: B5 light
notes: Module ratio 2:2, inert Fc

Tests used:
human CD137 ECD-mIgG2a [1] = target: human CD137 ECD-mIgG2a (human); assay: ELISA on coated human CD137-ECD-mIgG2a with supernatant containing the CH3 fusion [panel B]
Chain of human CD137 ECD-mIgG2a (human) (chain, as listed by the source limits assumed): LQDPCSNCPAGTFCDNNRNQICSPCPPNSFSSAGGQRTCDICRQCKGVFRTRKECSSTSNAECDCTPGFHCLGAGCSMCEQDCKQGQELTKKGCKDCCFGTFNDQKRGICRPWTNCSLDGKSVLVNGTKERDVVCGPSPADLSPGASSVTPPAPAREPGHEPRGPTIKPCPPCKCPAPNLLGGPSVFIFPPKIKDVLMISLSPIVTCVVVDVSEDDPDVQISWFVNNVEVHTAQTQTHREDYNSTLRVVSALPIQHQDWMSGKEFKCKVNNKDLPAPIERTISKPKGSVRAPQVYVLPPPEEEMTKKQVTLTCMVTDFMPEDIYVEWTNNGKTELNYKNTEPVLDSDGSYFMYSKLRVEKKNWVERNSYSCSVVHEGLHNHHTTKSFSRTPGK

[2] = target: T1, full-length human CD137 (huCD137) (human, UniProt Q07011 24-255); assay: flow cytometry on Hut78/huCD137 cells
T1 construct: On transduced Hut78 cells (Hut78/huCD137), transiently on HEK293 cells, or natively on PBMC/T cells; also called TNFRSF9; 4-1BB
T1 sequence (Q07011 24-255 limits assumed): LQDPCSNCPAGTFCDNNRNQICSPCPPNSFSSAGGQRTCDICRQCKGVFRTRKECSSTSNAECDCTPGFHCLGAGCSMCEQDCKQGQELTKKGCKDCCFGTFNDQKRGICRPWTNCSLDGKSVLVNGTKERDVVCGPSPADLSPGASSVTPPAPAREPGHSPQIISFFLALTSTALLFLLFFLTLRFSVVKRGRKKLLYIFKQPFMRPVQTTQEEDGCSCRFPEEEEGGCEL

human CD137 ECD-mIgG2a [3] = target: human CD137 ECD-mIgG2a (human); assay: SPR, antibody captured on anti-human Fc surface; analyte taken as human CD137 ECD-mIgG2a
[4] = target: T1, full-length human CD137 (huCD137); assay: cell-based or functional assay
human CD137 ECD-mIgG2a [5] = target: human CD137 ECD-mIgG2a (human); assay: SPR, multispecific antibody captured on anti-human IgG Fc chip, human CD137 ECD-mIgG2a flowed over
Method: Briefly, anti-human IgG (Fc) antibody was immobilized on an activated CM5 biosensor chip (Cat.: BR100839, GE Life Sciences). Anti-huCD137 monoclonal antibodies or multispecific antibodies were flown through the chip surface and captured by anti-human IgG (Fc) antibody. […] The equilibrium dissociation constant (KD)) was calculated as the ratio koff/kₒₙ.

human CD137 ECD-mIgG2a [6] = target: human CD137 ECD-mIgG2a (human); assay: SPR (BIAcore T-200): antibody captured on anti-human IgG (Fc) CM5 chip, human CD137 ECD-mIgG2a as analyte, 1:1 Langmuir fit
Method: Characterization of anti-huCD137 VH domain antibodies were made by SPR assays using BIAcore™ T-200 (GE Life Sciences). Briefly, anti-human IgG (Fc) antibody was immobilized on an activated CM5 biosensor chip (Cat.: BR100839, GE Life Sciences). Anti-huCD137 domain antibodies were flowed over the chip surface and captured by anti-human IgG (Fc) antibody. […] The equilibrium dissociation constant (KD) was calculated as the ratio koff/kₒₙ.

[7] = target: T1, full-length human CD137 (huCD137); assay: cell-based or functional assay; remark: listed apart in the source
[8] = target: T1, full-length human CD137 (huCD137); assay: flow cytometry on Hut78/huCD137 cells; remark: listed apart in the source
From the text: Cell fluorescence was quantified using a flow cytometer (Guava easyCyte™ 8HT, Merck-Millipore, USA).

Binder | Kd (human CD137 ECD-mIgG2a [3]) [nM] | koff (human CD137 ECD-mIgG2a [3]) [s⁻¹] | kon (human CD137 ECD-mIgG2a [3]) [M⁻¹ s⁻¹] | Functional assay EC50 (ug/ml), in vitro CD137 activation (PBMC cytokine release) [4] [µg/mL] | further results
B1 | – | – | – | – | binding result (human CD137 ECD-mIgG2a [1]): binds
B2 | – | – | – | – | binding result (human CD137 ECD-mIgG2a [1]): no binding
B3 | – | – | – | – | binding result (human CD137 ECD-mIgG2a [1]): no binding
B4 | – | – | – | – | binding result (human CD137 ECD-mIgG2a [1]): no binding
B5 | 586 | 0.00455 | 7770 | – | binding result [2]: binds
B6 | – | – | – | 1.16 | –
B7 | – | – | – | 1.76 | –
B8 | – | – | – | 0.18 | –
B9 | – | – | – | 25.1 | –
B10 | – | – | – | 4.69 | –
B11 | 767 | 0.0114 | 14800 | – | EC50 (read off the curve) [2]: ~2 µg/mL
B12 | 266 | 0.003 | 11300 | – | EC50 (read off the curve) [2]: ~0.1 µg/mL
B13 | 646 | 0.00574 | 8890 | – | EC50 (read off the curve) [2]: ~2 µg/mL
B14 | 184 | 0.0534 | 290000 | – | EC50 (read off the curve) [2]: ~0.5 µg/mL
B15 | 232 | 0.0105 | 45200 | – | EC50 (read off the curve) [2]: ~2 µg/mL
B16 | 194 | 0.0247 | 127000 | – | binding result [2]: binds
B17 | – | – | – | 0.31 | Kd (human CD137 ECD-mIgG2a [5]): 94.8 nM; Kd (human CD137 ECD-mIgG2a [6]): 111 nM; koff (human CD137 ECD-mIgG2a [6]): 0.0029 s⁻¹; kon (human CD137 ECD-mIgG2a [6]): 26100 M⁻¹ s⁻¹; Functions EC50(ug/ml), PBMC based cytokine release assay [7]: 0.341 µg/mL; Functions Top, PBMC based cytokine release assay [7]: 2510; EC50 [8]: 0.38 µg/mL

— patent US20240209106A1 (BEIGENE SWITZERLAND, published 2024)
